These results are taken from publication PMC11852163, “Development and Characterization of CD44-Targeted X-Aptamers with Enhanced Binding Affinity for Cancer Therapeutics”.

Usually Kd stands for a measure of binding affinity in units of concentration.

Data set [1] deals with CD44-HABD (UniProt P16070). The experiment in a line: filter binding. To be noted: monothioate backbone, Filter binding: 1 nM biotinylated XA, 20 mM Tris pH 8.0, 150 mM NaCl, 40 min, room temperature, cell binding at room temperature, 30-60 min.
The target of data set [2] is CD44-HABD (UniProt P16070 20-178). Kind of data set: filter binding; Filter binding: 1 nM biotinylated XA, 20 mM Tris pH 8.0, 150 mM NaCl, 40 min, room temperature; cell binding at room temperature, 30-60 min. To be noted: protein: recombinant; label: biotin.
CD44-HABD (UniProt P16070 20-178), sequence (P16070 20-178): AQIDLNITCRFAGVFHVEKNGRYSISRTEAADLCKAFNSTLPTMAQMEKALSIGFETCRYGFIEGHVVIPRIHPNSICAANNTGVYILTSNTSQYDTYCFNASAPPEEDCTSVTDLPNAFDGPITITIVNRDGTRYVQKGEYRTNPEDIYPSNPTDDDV

CD44-HABD (UniProt P16070), sequence (P16070 20-178): as above

“TTGGGGCCTGCAAGACGTCCATAGACACAG [XA4-ADDA]”: the Kd in data set [1] (X = T18 as ADDA-conjugated amino-dU) stood at 0.103 µM.

“TGCAGATACAGTAAACGTCCATAGACACAG [XA5-NH2]”: in data set [1] (X = T7, T18 as amino-dU), the Kd was 0.137 µM.

“TTAAGATCTGCAATGTAACCATAGACACAG [XA9-NH2]”: in data set [1] (X = T14 as amino-dU), the Kd worked out at 0.111 µM.

With “TTAAGATCTGTTAGGGAACCAAGACGACAG [XA1-NH2]”, in data set [1] (X = T9, T11 as 5-(aminoethyl-3-acrylimido)-dU), the Kd worked out at 0.0555 µM.

Regarding “TGCAGATACAGTAAACGTCCATAGACACAG [XA5-ADDA]”, the Kd in data set [1] (X = T7, T18 as ADDA-conjugated amino-dU) was 0.125 µM.

In data set [1] (X = T14 as ADDA-conjugated amino-dU), “TTAAGATCTGCAATGTAACCATAGACACAG [XA9-ADDA]” gave a Kd of 0.0776 µM.

Molecule “TTGGGGCCTGCAAGACGTCCATAGACACAG [XA4-NH2]” returned a Kd in data set [1] (X = T18 as amino-dU) of 0.137 µM.

In data set [1] (X = T9, T11 as ADDA-conjugated amino-dU), “TTAAGATCTGTTAGGGAACCAAGACGACAG [XA1-ADDA]” returned a Kd of 0.0783 µM.

B1: XA2-NH2 (XNA)
DNA: TGCAGATCTGCAAGGGAACCAAGGACACTAC
modifications: NH2 form; no X in the printed sequence, X position unknown; monothioate backbone
B1: the Kd in data set [2] was determined as 0.0629 ± 0.0103 µM.

B2: XA2-ADDA (XNA)
DNA: TGCAGATCTGCAAGGGAACCAAGGACACTAC
modifications: ADDA form; no X in the printed sequence, X position unknown; monothioate backbone
For B2, in data set [2], the Kd amounted to 0.109 ± 0.0154 µM.
